Measured values published in article PMC13137973, “Tumor Necrosis Factor Receptor 2 Inhibits HIV-1 Infection by Blocking the Binding of gp120 to CD4” (International Journal of Biological Sciences, 2026).

Biological target: T1, human immunodeficiency virus 1 (HIV-1) (group M, subtype B, Isolate MN) gp120 Protein (HIV-1 (group M, subtype B, isolate MN), UniProt P05877 30-513)
T1 construct: also called gp120 core; His-tagged gp120; source: bought: Sino Biological (Catalog No: 40405-V08H)
Assay: ELISA; plates coated with human TNFR1 or TNFR2 (5 µg/mL, carbonate buffer pH 9.6, overnight 4 °C), blocked with 3% BSA; serial dilutions of gp120, 2 h room temperature; wash 20 mM Tris-HCl, 500 mM NaCl, 0.05% Tween-20, pH 7.5; bound gp120 detected with anti-His-HRP
Conditions: both partners purified

B1: human TNFR2 / CD120b protein, extracellular domain (residues 1-257) (domain or fragment, UniProt P20333-1 23-257, looked up)
chain: LPAQVAFTPYAPEPGSTCRLREYYDQTAQMCCSKCSPGQHAKVFCTKTSDTVCDSCEDSTYTQLWNWVPECLSCGSRCSSDQVETQACTREQNRICTCRPGWYCALSKQEGCRLCAPLRKCRPGFGVARPGTETSDVVCKPCAPGTFSNTTSSTDICRPHQICNVVAIPGNASMDAVCTSTSPTRSMAPGAVHLPQPVSTRSQHTQPTPEPSTAPSTSFLLPMGPSPPAEGSTGD
notes: also called tumor necrosis factor receptor type II; immobilized TNFR2; source: bought: Sino Biological (Catalog No: 10417-H08H)
binding result: binds
